Blank lines part the entries; values can stand above or below the binder they belong to. Where no end group is shown, it is not given here. Me3 = trimethyl-lysine (Kme3); Me2 = dimethyl-lysine (Kme2)
What was measured:
[1] = target: LEDGF/p52 (UniProt O75475-2 1-333); assay: NMR titration
[2] = target: LEDGF/p75 (UniProt O75475 1-530); assay: SEC

Binder: SAPATGGVKKPHRY [histone H3 peptide SAPATGGVKKPHRY, unmodified]
Kd [1]: 6 mM

B1: PogZ(1117–1410) (domain or fragment)
chain: SNAASLPLSMIVAIDEISLFLDTEVLSSDDRKENALQTVGTGEPWCDVVLAILADGTVLPTLVFYRGQMDQPANMPDSILLEAKESGYSDDEIMELWSTRVWQKHTACQRSKGMLVMDCHRTHLSEEVLAMLSASSTLPAVVPAGCSSKIQPLDVCIKRTVKNFLHKKWKEQAREMADTACDSDVLLQLVLVWLGEVLGVIGDCPELVQRSFLVASVLPGPDGNINSPTRNADMQEELIASLEEQLKLSGEHSESSTPRPRSSPEETIEPESLHQLFEGESETESFYGFEEADLDLMEI
binding result [2]: binds

Binder: SAPATGGVK(Me3)KPHRY [histone H3 peptide SAPATGGVKme3KPHRY]
Kd [1]: 2.7 mM

Results, then the binder that gave them:

Kd [1]: 2.4 mM
Binder: SAPATGGVK(Me2)KPHRY [histone H3 peptide SAPATGGVKme2KPHRY]

Kd [1]: 5.4 mM
Binder: SAPATGGVK(Me)KPHRY [histone H3 peptide SAPATGGVKme1KPHRY]

Reference: PMC10570030 (Nucleic Acids Research, 2023)
